From article PMC3884107 (PLoS ONE, 2013)
Numbering of substitutions follows the chain as printed. In names and notes the source's numbering stands.

B1: MSP 689R (active two-chain macrophage stimulating protein; Q19-G711; C672A) (ligand, human)
chain 1: QRSPLNDFQVLRGTELQHLLHAVVPGPWQEDVADAEECAGRCGPLMDCRAFHYNVSSHGCQLLPWTQHSPHTRLRRSGRCDLFQKKDYVRTCIMNNGVGYRGTMATTVGGLPCQAWSHKFPNDHKYTPTLRNGLEENFCRNPDGDPGGPWCYTTDPAVRFQSCGIKSCREAACVWCNGEEYRGAVDRTESGRECQRWDLQHPHQHPFEPGKFLDQGLDDNYCRNPDGSERPWCYTTDPQIEREFCDLPRCGSEAQPRQEATTVSCFRGKGEGYRGTANTTTAGVPCQRWDAQIPHQHRFTPEKYACKDLRENFCRNPDGSEAPWCFTLRPGMRAAFCYQIRRCTDDVRPQDCYHGAGEQYRGTVSKTRKGVQCQRWSAETPHKPQFTFTSEPHAQLEENFCRNPDGDSHGPWCYTMDPRTPFDYCALRRCADDQPPSILDPPDQVQFEKCGKRVDRLDQRRSKLR
chain 2: VVGGHPGNSPWTVSLRNRQGQHFCGGSLVKEQWILTARQCFSSCHMPLTGYEVWLGTLFQNPQHGEPSLQRVPVAKMVCGPSGSQLVLLKLERSVTLNQRVALICLPPEWYVVPPGTKCEIAGWGETKGTGNDTVLNVALLNVISNQECNIKHRGRVRESEMCTEGLLAPVGACEGDYGGPLACFTHNAWVLEGIIIPNRVCARSRWPAVFTRVSVFVDWIHKVMRLG
notes: MSP alpha-chain of human macrophage stimulating protein: from Q19 of the pro-MSP construct to R483 (cleavage between R483 and V484); disulfide-linked to the beta-chain; Made as single-chain pro-MSP (Q19-G711; C672A; C-terminal 6-His) and cleaved by sHepsin; For the radioligand assay part of the protein was iodinated with 125I (Iodogen); also called HGFL; MST1; source: CHO cells, transiently …
B2: MSP β 689R (V484-G711; C588S, C672A) (domain or fragment, human, UniProt P26927 484-711, looked up)
chain: B1 chain 2 with C105S
notes: source: CHO cells, transiently transfected, secreted; purified (Ni-NTA, SEC); not shown: His6, C-terminal, kept
B3: MSP β 672C 689R (V484-G711; C588S, without C672A) (domain or fragment, human, UniProt P26927 484-711, looked up)
chain: B1 chain 2 with C105S, A189C
notes: source: CHO cells, transiently transfected, secreted; purified (Ni-NTA, SEC)
B4: MSP β 672C 689C (V484-G711; C588S, without C672A; 689C) (domain or fragment, human, UniProt P26927 484-711, looked up)
chain: B1 chain 2 with C105S, A189C, R206C
notes: as for B3
B5: MSP 689C (active two-chain macrophage stimulating protein; Q19-G711; C672A; 689C) (ligand, human)
chain 1: B1 chain 1
chain 2: B1 chain 2 with R206C
notes: MSP alpha-chain of human macrophage stimulating protein: from Q19 of the pro-MSP construct to R483 (cleavage between R483 and V484); disulfide-linked to the beta-chain; Made as single-chain pro-MSP (Q19-G711; C672A; C-terminal 6-His) and cleaved by sHepsin; For the radioligand assay part of the protein was iodinated with 125I (Iodogen); source: CHO cells, transiently transfected, secreted; …
B6: MSP β 689C (V484-G711; C588S, C672A; 689C) (domain or fragment, human, UniProt P26927 484-711, looked up)
chain: B1 chain 2 with C105S, R206C
notes: as for B2

Columns and labels:
[1] = biological target: T1, RON-Fc (human RON Sema, PSI and IPT1 domains, E25-M682, Fc fusion with human IgG1) (human, UniProt Q04912-1 25-682); assay: ELISA; RON-Fc (1 µg/ml) captured on plate-coated rabbit anti-human IgG Fc; MSP 1000 nM-0.2 pM, 1 h, room temperature; 50 mM HEPES pH 7.2, 150 mM NaCl, 5 mM CaCl2, 1% BSA, 0.1% Tween-20; bound MSP detected with anti-His-HRP; 4-parameter fit; details: both partners purified
T1 construct: human RON (Recepteur d'Origine Nantais, MST1R), Sema, PSI and IPT1 domains, E25-M682; also called RON-Fc fusion protein; source: CHO cells; purified (MabSelect Sure, SEC)
T1 sequence (looked up): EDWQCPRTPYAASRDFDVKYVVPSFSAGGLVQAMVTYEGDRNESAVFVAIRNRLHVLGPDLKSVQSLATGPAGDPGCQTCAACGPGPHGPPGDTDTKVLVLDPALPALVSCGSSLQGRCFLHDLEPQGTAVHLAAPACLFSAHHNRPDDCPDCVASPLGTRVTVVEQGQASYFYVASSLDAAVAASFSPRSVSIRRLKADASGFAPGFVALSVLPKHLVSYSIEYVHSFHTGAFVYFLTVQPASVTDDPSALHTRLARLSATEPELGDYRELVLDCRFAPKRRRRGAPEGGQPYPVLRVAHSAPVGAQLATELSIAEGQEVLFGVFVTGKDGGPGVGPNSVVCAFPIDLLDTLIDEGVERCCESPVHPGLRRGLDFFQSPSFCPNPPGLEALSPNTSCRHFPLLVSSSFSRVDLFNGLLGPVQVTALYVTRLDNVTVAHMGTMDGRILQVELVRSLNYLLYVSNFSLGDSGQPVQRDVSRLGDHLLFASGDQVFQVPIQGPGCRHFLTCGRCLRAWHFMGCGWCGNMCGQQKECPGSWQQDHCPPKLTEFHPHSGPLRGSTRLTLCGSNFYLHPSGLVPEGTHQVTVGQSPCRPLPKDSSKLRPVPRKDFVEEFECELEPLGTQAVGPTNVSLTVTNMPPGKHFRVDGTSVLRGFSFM

[2] = biological target: T2, human RON on 3T3-hRON cells (human, UniProt Q04912-1 25-1400); assay: radioligand binding; competition of 125I-MSP with unlabeled MSP (from 5 µM) on 150,000 3T3-hRON cells, 2 h at room temperature; DMEM, 1% BSA, 325 nM human IgG, 50 mM HEPES pH 7.2, 0.1% sodium azide; Scatchard analysis; details: one partner purified
T2 construct: human RON (Recepteur d'Origine Nantais, MST1R) expressed on the surface of 3T3-hRON cells; In the functional rows this molecule also stands for human RON on A2780-hRON, BxPC3, HCT15 and HPC5 cells; also called Recepteur d'Origine Nantais; MST1R; source: 3T3 cells stably transfected with human RON (3T3-hRON), on cells

[3] = biological target: T2, human RON on 3T3-hRON cells; assay: radioligand binding; competition of 125I-MSP with unlabeled MSP on 3T3-hRON cells, 4 h on ice; details: one partner purified
[4] = biological target: T1, RON-Fc (human RON Sema, PSI and IPT1 …); assay: SPR; RON-Fc captured (50-100 RU) on immobilised anti-human Fc surfaces, CM5 chip, Biacore 3000; MSP, MSP β or scMSP injected 500-3.9 nM in HBS-P (10 mM HEPES pH 7.5, 150 mM NaCl, 0.005% P20), 25°C, 30 µl/min; global 1:1 Langmuir fit, KD = koff/kon; details: both partners purified
[5] = biological target: T1, RON-Fc (human RON Sema, PSI and IPT1 …); assay: BLI; RON-Fc (10 µg/ml) loaded on anti-human IgG Fc biosensors, Octet RED384; MSP, MSP β or scMSP 75-4.7 nM, 400 s association, 400 s dissociation, 30°C; global 1:1 fit, KD = koff/kon; details: both partners purified
[6] = biological target: T3, RON Sema/PSI (human RON residues E25-P568) (human, UniProt Q04912-1 25-568); assay: SPR; RON Sema/PSI amine-coupled to a CM5 chip, Biacore 3000; MSP, MSP β or scMSP injected 500-3.9 nM in HBS-P (10 mM HEPES pH 7.5, 150 mM NaCl, 0.005% P20), 25°C, 30 µl/min; global 1:1 Langmuir fit, KD = koff/kon; details: both partners purified
T3 construct: human RON (Recepteur d'Origine Nantais, MST1R), Sema and PSI domains, E25-P568; Expressed with an N-terminal gp67 secretion signal; source: Trichoplusia ni insect cells, baculovirus; purified from the media (Ni-NTA, SEC)
T3 sequence (looked up): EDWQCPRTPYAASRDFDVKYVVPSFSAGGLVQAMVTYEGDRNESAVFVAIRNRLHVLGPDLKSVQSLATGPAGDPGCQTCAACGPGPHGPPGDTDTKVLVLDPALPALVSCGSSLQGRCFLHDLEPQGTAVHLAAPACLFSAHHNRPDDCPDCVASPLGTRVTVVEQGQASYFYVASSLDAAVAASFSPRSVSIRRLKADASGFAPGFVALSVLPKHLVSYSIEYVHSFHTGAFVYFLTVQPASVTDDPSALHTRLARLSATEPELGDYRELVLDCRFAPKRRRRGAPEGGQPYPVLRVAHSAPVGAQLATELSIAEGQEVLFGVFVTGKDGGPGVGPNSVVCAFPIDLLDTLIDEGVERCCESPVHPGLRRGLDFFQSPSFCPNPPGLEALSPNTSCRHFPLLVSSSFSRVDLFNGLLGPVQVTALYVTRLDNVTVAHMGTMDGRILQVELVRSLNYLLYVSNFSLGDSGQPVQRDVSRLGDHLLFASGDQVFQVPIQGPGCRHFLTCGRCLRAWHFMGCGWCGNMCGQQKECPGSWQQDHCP

Binder | EC50 [1] [nM] | Kd [2] [nM] | Kd [3] [nM] | Kd [4] [nM] | koff [4] [s⁻¹] | kon [4] [M⁻¹ s⁻¹] | Kd [5] [nM] | koff [5] [s⁻¹] | kon [5] [M⁻¹ s⁻¹] | Kd [6] [nM] | koff [6] [s⁻¹] | kon [6] [M⁻¹ s⁻¹]
B1 | 0.1 | 12.6 | 23 | – | – | – | – | – | – | – | – | –
B2 | 0.05 | – | – | 9.6 | 0.0175 | 1.81e+06 | 7.5 | 0.0035 | 470000 | 6.6 | 0.0184 | 2.71e+06
B3 | – | – | – | 6.3 | 0.0066 | 860000 | – | – | – | – | – | –
B4 | – | – | – | 9.7 | 0.0075 | 770000 | – | – | – | – | – | –
B5 | 0.2 | 13 | 25.7 | – | – | – | – | – | – | – | – | –
B6 | 0.1 | – | – | 9 | 0.0419 | 4.42e+06 | 9.1 | 0.0093 | 1.05e+06 | 9.1 | 0.0134 | 1.46e+06
